Results: paper PMC10290117 (2023)
Numbered stars: 1 amine (or outer) side, 2 acyl side, 3 side chain; on linkers, the order of the positions; unused ones are H or OH. Square brackets hold non-standard residues; d marks the D form. Ends that are not written are not given here. OSE = (2S)-2-amino-3-sulfooxy-propanoic acid, sulfo-serine, O=C([C@H](COS(=O)(=O)O)N[*:1])[*:2]; Abu(4-PO3H2) = N[C@@H](CCP(=O)(O)O)C(=O)O; pS = N[C@@H](COP(=O)(O)O)C(=O)O

Target: T1, HLA-B*0702, biotinylated recombinant HLA class I molecule of the Alpha assay (human, biotin)
T1 chain: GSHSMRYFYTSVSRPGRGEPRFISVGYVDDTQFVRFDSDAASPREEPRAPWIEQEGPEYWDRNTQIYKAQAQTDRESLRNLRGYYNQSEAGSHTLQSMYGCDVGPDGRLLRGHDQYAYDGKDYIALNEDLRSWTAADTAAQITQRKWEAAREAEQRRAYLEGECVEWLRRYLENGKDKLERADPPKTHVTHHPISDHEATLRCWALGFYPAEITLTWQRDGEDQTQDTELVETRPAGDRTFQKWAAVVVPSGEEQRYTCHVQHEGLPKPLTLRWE
LPASPAHQL [DOT1L_(998–1006) peptide LPASPAHQL] showed a Kd of 54.3 nM.
With EPR[OSE]PSHSM [OSE-MLL_(747–755) peptide EPR(OSE)PSHSM] the Kd was 26.2 nM.
EPR[Abu(4-PO3H2)]PSHSM [E7P-MLL_(747–755) peptide EPR(E7P)PSHSM] gave a Kd of 33.9 nM.
In the case of EPR[pS]PSHSM [pMLL_(747–755) phosphopeptide EPR(pS)PSHSM], the Kd is reported as 56.7 nM.
With EPRSPSHSM [MLL_(747–755) peptide EPRSPSHSM] the Kd was 27 nM.
LPA[pS]PAHQL [pDOT1L_(998–1006) phosphopeptide LPA(pS)PAHQL] was tested, and the Kd was 309 nM.
